*1 amine or outer side, *2 acyl side, *3 side chain or, on linkers, in order; H or OH if unused. Where a SMILES comes first, the peptide text is derived from it. Bridges are numbered along the chain shown (N, C = ends). [ ]: non-standard residue; d: D form. The star is where a group is joined. TATA = O=C(CC[*:1])N1CN(C(=O)CC[*:2])CN(C(=O)CC[*:3])C1; NOTA = O=C(O)CN1CCN(CC(=O)O)CCN(CC(=O)*)CC1; Hyp = O=C(O)[C@@H]1C[C@@H](O)CN1; hArg = N=C(N)NCCCC[C@H](N)C(=O)O; Pen = CC(C)(S)[C@H](N)C(=O)O; βAla = NCCC(=O)O; Sar = CNCC(=O)O
Columns and labels:
in vivo [1] = details: mouse, iv, 11.1 MBq, total radioactivity; for tissue uptake at 4 h: dissected tissue, single iv 11.1 MBq
Experimental: In vivo radiobiological distribution assay: mice in the PET/CT imaging group were sacrificed immediately after the end of 4 h imaging, and mice in the inhibition group were sacrificed after 1 h imaging. Tissue samples of tumor, blood, heart, lung, liver, spleen, kidney, stomach, intestine, bone, muscle, and brain were collected by dissection, weighed and their radioactive counts were recorded. The probe uptake value in each tissue and organ of each experimental animal is expressed as radioactivity per gram of tissue as a percentage of the dose administered (% ID/g).

in vivo [2] = details: nude, mouse, iv, 11.1 MBq, total radioactivity
Experimental: The tissue distribution characteristics of the compounds in PC-3 tumor-bearing mice were studied by using the PC-3 tumor-bearing mice model, small animal PET/CT scans were performed at different time points after a single intravenous administration of the compounds, tumors and other regions of interest were delineated to obtain radioactive uptake values.
Tumor cells in the logarithmic growth phase were used for in vivo tumor inoculation. PC-3 cells were suspended in saline at a density of 5×10^6/mL, and a total of 15 nude mice were inoculated under the right flank at 0.1 mL per inoculation point. Imaging and biodistribution experiments were performed when tumors grew to 300-600 mm^3 (tumor volume measurement method: the long diameter and short diameter of the tumor were measured, and its volume calculation formula was: volume=0.5× major diameter× minor diameter^2). The drug was distributed according to the animal dose on the drug distribution table, and a certain volume of compound diluent was absorbed by a 1 mL insulin syringe, and the initial radioactive dose and initial dosimetry time were recorded. The injection time, residual radioactivity dose, and residual dose determination time were recorded after tail vein injection in tumor-bearing mice. […] PET/CT scans of animals were performed at different time points after administration. During the scanning process, the animals continued to inhale 1-2% isoflurane to maintain the anesthetic effect, and the scanning time was recorded. […] After the completion of PET/CT scanning, the images were reconstructed and the images and data were processed with the software of the device. The tumor, heart (including contents), kidney, intestine, and muscle were delineated as regions of interest. The percentage injection dose rate per gram of tissue in the area of interest (% ID/g) was obtained. The data of biological distribution was expressed as the percentage of radioactive count per gram of tissue or organ to the total dose (radioactive count) (% ID/g).
Data for each sampling point were expressed as the mean standard deviation (mean SD) of 3 tumor-bearing mice.

SMILES: CC(C)C[C@@H]1NC(=O)[C@@H]2CSCCC(=O)N3CN(CN(C3)C(=O)CCSC(C)(C)[C@@H](C(N)=O)NC(=O)[C@H](CCCCNC(=N)N)NC(=O)[C@H](Cc3c[nH]c4ccccc34)NC(=O)[C@@H](CC(=O)O)NC(=O)[C@@H]3CCCN3C(=O)[C@H](Cc3c[nH]cn3)NC1=O)C(=O)CCSC[C@H](NC(=O)[C@@H]1CC(=O)NCCCC[C@H](NC(=O)CN(C)C(=O)CN(C)C(=O)CN(C)C(=O)CN(C)C(=O)CN(C)C(=O)CN(C)C(=O)CN(C)C(=O)CN(C)C(=O)CN(C)C(=O)CN(C)C(=O)CCNC(=O)CN3CCN(CC(=O)O)CCN(CC(=O)O)CC3)C(=O)N[C@@H](CCCCNC(=N)N)C(=O)N1)C(=O)N1C[C@H](O)C[C@H]1C(=O)N[C@@H](CC(C)C)C(=O)N[C@@H](C(C)C)C(=O)N[C@@H](CC(N)=O)C(=O)N1CCC[C@H]1C(=O)N[C@@H](CC(C)C)C(=O)N2 [Example 3] ({NOTA-βAla}-[Sar][Sar][Sar][Sar][Sar][Sar][Sar][Sar][Sar][Sar]K[hArg]DC[Hyp]LVNPLCLHP[dD]W[hArg][Pen]-NH2; lactam 11-13; linker 14-21-28 via TATA)
- tissue uptake at 4 h (in vivo [1]; nude mice, heart, radioactive uptake: Heart, mouse S1): 0.31 %ID/g
- tissue uptake at 4 h (in vivo [1]; nude mice, intestine, radioactive uptake: Intestine, Mean ± SD of S1-S3): 0.31 ± 0.1 %ID/g
- tissue uptake at 4 h (in vivo [1]; nude mice, intestine, radioactive uptake: Intestine, mouse S1): 0.42 %ID/g
- tissue uptake at 4 h (in vivo [1]; nude mice, intestine, radioactive uptake: Intestine, mouse S2): 0.29 %ID/g
- tissue uptake at 4 h (in vivo [1]; nude mice, intestine, radioactive uptake: Intestine, mouse S3): 0.22 %ID/g
- tissue uptake at 4 h (in vivo [1]; nude mice, muscle, radioactive uptake: Muscle, Mean ± SD of S1-S3): 0.5 ± 0.23 %ID/g
- tissue uptake at 4 h (in vivo [1]; nude mice, muscle, radioactive uptake: Muscle, mouse S1): 0.46 %ID/g
- tissue uptake at 4 h (in vivo [1]; nude mice, muscle, radioactive uptake: Muscle, mouse S2): 0.76 %ID/g
- tissue uptake at 4 h (in vivo [1]; nude mice, muscle, radioactive uptake: Muscle, mouse S3): 0.3 %ID/g
- tissue to tissue ratio at 4 h (in vivo [1]; nude mice, tumor and spleen): 7.2 ± 3
- tissue to tissue ratio at 4 h (in vivo [1]; nude mice, tumor/blood): 21.9 ± 16.7
- tissue to tissue ratio at 4 h (in vivo [1]; nude mice, tumor/bone): 4.23 ± 2.87
- tissue to tissue ratio at 4 h (in vivo [1]; nude mice, tumor/brain): 58.8 ± 28.7
- tissue to tissue ratio at 4 h (in vivo [1]; nude mice, tumor/intestine): 15.7 ± 10.3
- tissue to tissue ratio at 4 h (in vivo [1]; nude mice, tumor/muscle): 11.3 ± 8.54
- tissue to tissue ratio at 4 h (in vivo [1]; nude mice, tumor/stomach): 24 ± 9.97
- tissue uptake at 4 h (in vivo [1]; nude, blood, radioactive uptake: Blood, Mean ± SD of S1-S3): 0.31 ± 0.22 %ID/g
- tissue uptake at 4 h (in vivo [1]; nude, blood, radioactive uptake: Blood, mouse S1): 0.2 %ID/g
- tissue uptake at 4 h (in vivo [1]; nude, blood, radioactive uptake: Blood, mouse S2): 0.56 %ID/g
- tissue uptake at 4 h (in vivo [1]; nude, blood, radioactive uptake: Blood, mouse S3): 0.16 %ID/g
- tissue uptake at 4 h (in vivo [1]; nude, bone, radioactive uptake: Bone, Mean ± SD of S1-S3): 1.23 ± 0.43 %ID/g
- tissue uptake at 4 h (in vivo [1]; nude, bone, radioactive uptake: Bone, mouse S1): 1.15 %ID/g
- tissue uptake at 4 h (in vivo [1]; nude, bone, radioactive uptake: Bone, mouse S2): 1.69 %ID/g
- tissue uptake at 4 h (in vivo [1]; nude, bone, radioactive uptake: Bone, mouse S3): 0.84 %ID/g
- tissue uptake at 4 h (in vivo [1]; nude, brain, radioactive uptake: Brain, Mean ± SD of S1-S3): 0.08 ± 0.03 %ID/g
- tissue uptake at 4 h (in vivo [1]; nude, brain, radioactive uptake: Brain, mouse S1): 0.11 %ID/g
- tissue uptake at 4 h (in vivo [1]; nude, brain, radioactive uptake: Brain, mouse S2): 0.05 %ID/g
- tissue uptake at 4 h (in vivo [1]; nude, brain, radioactive uptake: Brain, mouse S3): 0.06 %ID/g
- tissue uptake at 4 h (in vivo [1]; nude, heart, radioactive uptake: Heart, Mean ± SD of S1-S3): 0.26 ± 0.06 %ID/g
- tissue uptake at 4 h (in vivo [1]; nude, heart, radioactive uptake: Heart, mouse S2): 0.29 %ID/g
- tissue uptake at 4 h (in vivo [1]; nude, heart, radioactive uptake: Heart, mouse S3): 0.2 %ID/g
- tissue uptake at 4 h (in vivo [1]; nude, kidney, radioactive uptake: Kidney, Mean ± SD of S1-S3): 57 ± 5.7 %ID/g
- tissue uptake at 4 h (in vivo [1]; nude, kidney, radioactive uptake: Kidney, mouse S1): 62.7 %ID/g
- tissue uptake at 4 h (in vivo [1]; nude, kidney, radioactive uptake: Kidney, mouse S2): 51.3 %ID/g
- tissue uptake at 4 h (in vivo [1]; nude, kidney, radioactive uptake: Kidney, mouse S3): 57.1 %ID/g
- tissue uptake at 4 h (in vivo [1]; nude, liver, radioactive uptake: Liver, Mean ± SD of S1-S3): 0.62 ± 0.11 %ID/g
- tissue uptake at 4 h (in vivo [1]; nude, liver, radioactive uptake: Liver, mouse S1): 0.66 %ID/g
- tissue uptake at 4 h (in vivo [1]; nude, liver, radioactive uptake: Liver, mouse S2): 0.5 %ID/g
- tissue uptake at 4 h (in vivo [1]; nude, liver, radioactive uptake: Liver, mouse S3): 0.71 %ID/g
- tissue uptake at 4 h (in vivo [1]; nude, lung, radioactive uptake: Lung, Mean ± SD of S1-S3): 0.42 ± 0.1 %ID/g
- tissue uptake at 4 h (in vivo [1]; nude, lung, radioactive uptake: Lung, mouse S1): 0.49 %ID/g
- tissue uptake at 4 h (in vivo [1]; nude, lung, radioactive uptake: Lung, mouse S2): 0.46 %ID/g
- tissue uptake at 4 h (in vivo [1]; nude, lung, radioactive uptake: Lung, mouse S3): 0.31 %ID/g
- tissue uptake at 4 h (in vivo [1]; nude, spleen, radioactive uptake: Spleen, Mean ± SD of S1-S3): 0.6 ± 0.06 %ID/g
- tissue uptake at 4 h (in vivo [1]; nude, spleen, radioactive uptake: Spleen, mouse S1): 0.66 %ID/g
- tissue uptake at 4 h (in vivo [1]; nude, spleen, radioactive uptake: Spleen, mouse S2): 0.54 %ID/g
- tissue uptake at 4 h (in vivo [1]; nude, spleen, radioactive uptake: Spleen, mouse S3): 0.59 %ID/g
- tissue uptake at 4 h (in vivo [1]; nude, stomach, radioactive uptake: Stomach, Mean ± SD of S1-S3): 0.18 ± 0.04 %ID/g
- tissue uptake at 4 h (in vivo [1]; nude, stomach, radioactive uptake: Stomach, mouse S1): 0.22 %ID/g
- tissue uptake at 4 h (in vivo [1]; nude, stomach, radioactive uptake: Stomach, mouse S2): 0.15 %ID/g
- tissue uptake at 4 h (in vivo [1]; nude, stomach, radioactive uptake: Stomach, mouse S3): 0.17 %ID/g
- tissue to tissue ratio at 4 h (in vivo [1]; nude, tumor and heart): 18 ± 11.4
- tissue to tissue ratio at 4 h (in vivo [1]; nude, tumor and lung): 11.3 ± 7.18
- tissue uptake at 4 h (in vivo [1]; nude, tumor, radioactive uptake: Tumor, Mean ± SD of S1-S3): 4.38 ± 1.94 %ID/g
- tissue uptake at 4 h (in vivo [1]; nude, tumor, radioactive uptake: Tumor, mouse S1): 5.03 %ID/g
- tissue uptake at 4 h (in vivo [1]; nude, tumor, radioactive uptake: Tumor, mouse S2): 2.19 %ID/g
- tissue uptake at 4 h (in vivo [1]; nude, tumor, radioactive uptake: Tumor, mouse S3): 5.9 %ID/g
- tissue uptake at 2 min (in vivo [2]; heart (including contents)): 3.35 ± 0.35 %ID/g
- tissue uptake at 5 min (in vivo [2]; heart (including contents)): 2.95 ± 0.63 %ID/g
- tissue uptake at 8 min (in vivo [2]; heart (including contents)): 2.59 ± 0.67 %ID/g
- tissue uptake at 11 min (in vivo [2]; heart (including contents)): 2.18 ± 0.51 %ID/g
- tissue uptake at 14 min (in vivo [2]; heart (including contents)): 1.86 ± 0.41 %ID/g
- tissue uptake at 17 min (in vivo [2]; heart (including contents)): 1.65 ± 0.38 %ID/g
- tissue uptake at 20 min (in vivo [2]; heart (including contents)): 1.51 ± 0.36 %ID/g
- tissue uptake at 23 min (in vivo [2]; heart (including contents)): 1.41 ± 0.31 %ID/g
- tissue uptake at 26 min (in vivo [2]; heart (including contents)): 1.28 ± 0.3 %ID/g
- tissue uptake at 29 min (in vivo [2]; heart (including contents)): 1.18 ± 0.24 %ID/g
- tissue uptake at 0.5 h (in vivo [2]; heart (including contents)): 1.21 ± 0.3 %ID/g
- tissue uptake at 1 h (in vivo [2]; heart (including contents)): 0.65 ± 0.25 %ID/g
- tissue uptake at 2 h (in vivo [2]; heart (including contents)): 0.15 ± 0.06 %ID/g
- tissue uptake at 4 h (in vivo [2]; heart (including contents)): 0.06 ± 0.02 %ID/g
- tissue uptake at 2 min (in vivo [2]; kidney): 15 ± 0.64 %ID/g
- tissue uptake at 5 min (in vivo [2]; kidney): 14.6 ± 2.02 %ID/g
- tissue uptake at 8 min (in vivo [2]; kidney): 14.9 ± 2.94 %ID/g
- tissue uptake at 11 min (in vivo [2]; kidney): 15.2 ± 2.41 %ID/g
- tissue uptake at 14 min (in vivo [2]; kidney): 15.1 ± 2.42 %ID/g
- tissue uptake at 17 min (in vivo [2]; kidney): 14.4 ± 2.34 %ID/g
- tissue uptake at 20 min (in vivo [2]; kidney): 14.4 ± 2.61 %ID/g
- tissue uptake at 23 min (in vivo [2]; kidney): 13.9 ± 2.02 %ID/g
- tissue uptake at 26 min (in vivo [2]; kidney): 12.5 ± 1.35 %ID/g
- tissue uptake at 29 min (in vivo [2]; kidney): 11.5 ± 0.94 %ID/g
- tissue uptake at 0.5 h (in vivo [2]; kidney): 11.6 ± 1.26 %ID/g
- tissue uptake at 1 h (in vivo [2]; kidney): 9.68 ± 0.18 %ID/g
- tissue uptake at 2 h (in vivo [2]; kidney): 8.82 ± 0.68 %ID/g
- tissue uptake at 4 h (in vivo [2]; kidney): 8.03 ± 0.35 %ID/g
- tissue uptake at 2 min (in vivo [2]; liver): 2.62 ± 0.25 %ID/g
- tissue uptake at 5 min (in vivo [2]; liver): 2.22 ± 0.41 %ID/g

Source: patent US20240366811A1, “RA[…] P[…] USES THEREOF” (TIANJIN CONJUSTAR BIOLOGICS CO., LTD., priority 2023, published 2024)
